Source: patent US20250382353A1 (LA JOLLA INSTITUTE FOR IMMUNOLOGY, published 2025)

B1: LJI_491-27 (1C3) (antibody, V domains shown)
VH: QVQLLESGGGLVQPGRSLRLSCAASGFTFDDYAMHWVRQPPGKGLEWVSGSSWNSGSVVYADSVKGRFTISRDSAKNSLHLQMNSLRVEDTALYYCAKAVDPTRGSYSPDYGFDIWGQGTMVTVS
VL: not shown
B2: LJI_491-39 (2E6) (antibody, V domains shown)
VH: EVQLVQSGGGLVQPGGSLKLSCAASGFTFSGSAMHWVRQASGKGLEWVGHIRSKANSYATAYAASKGRFTISRDDSKNTAYLQMNSLKTEDTAVYYCTREDIVGVPVAKDWFDPWGQGTLVTVS
VL: DIQMTQSPSSLFASVGDRVTITCRASQSISSYLNWYQQKPGKAPKLLIYAASSLQSGVPSRFSGSGFGTDFTLTISSLQPEDFATYYCQQSYSTLSITFGQGTRLEIKR

Experiments:
Assay in all cases: cell-based or functional assay
[1] = biological target: rVSV-G614 spike (SARS-CoV-2, UniProt P0DTC2 14-1252)
[2] = biological target: rVSV-Delta spike (SARS-CoV-2 Delta, UniProt P0DTC2 14-1252)
[3] = biological target: rVSV-Omicron spike (SARS-CoV-2 Omicron, UniProt P0DTC2 14-1252)

Binder	IC50 (ng/mL), neutralization of rVSV-G614 pseudovirions on Vero cells [1]	IC50 (ng/mL), neutralization of rVSV-Delta pseudovirions on Vero cells [2]	IC50 (ng/mL), neutralization of rVSV-Omicron pseudovirions on Vero cells [3]
B1	8 ng/mL	12 ng/mL	3 ng/mL
B2	15 ng/mL	324 ng/mL	88 ng/mL
